Results reported in article PMC3458550.

Biological target: flag-tagged Ran Q69L (GTPase-inactive mutant, RanGTP locked form), P62826
Test: co-IP
Details: remark: other sources report otherwise

B1: EGFP-tagged full length human IPO5 (importin 5), O00410-3 1-1115 (natural protein)
chain: MPEDQVGKLEATENTISAMAAAAAEQQQFYLLLGNLLSPDNVVRKQAEETYENIPGQSKITFLLQAIRNTTAAEEARQMAAVLLRRLLSSAFDEVYPALPSDVQTAIKSELLMIIQMETQSSMRKKVCDIAAELARNLIDEDGNNQWPEGLKFLFDSVSSQNVGLREAALHIFWNFPGIFGNQQQHYLDVIKRMLVQCMQDQEHPSIRTLSARATAAFILANEHNVALFKHFADLLPGFLQAVNDSCYQNDDSVLKSLVEIADTVPKYLRPHLEATLQLSLKLCGDTSLNNMQRQLALEVIVTLSETAAAMLRKHTNIVAQTIPQMLAMMVDLEEDEDWANADELEDDDFDSNAVAGESALDRMACGLGGKLVLPMIKEHIMQMLQNPDWKYRHAGLMALSAIGEGCHQQMEGILNEIVNFVLLFLQDPHPRVRYAACNAVGQMATDFAPGFQKKFHEKVIAALLQTMEDQGNQRVQAHAAAALINFTEDCPKSLLIPYLDNLVKHLHSIMVLKLQELIQKGTKLVLEQVVTSIASVADTAEEKFVPYYDLFMPSLKHIVENAVQKELRLLRGKTIECISLIGLAVGKEKFMQDASDVMQLLLKTQTDFNDMEDDDPQISYMISAWARMCKILGKEFQQYLPVVMGPLMKTASIKPEVALLDTQDMENMSDDDGWEFVNLGDQQSFGIKTAGLEEKSTACQMLVCYAKELKEGFVEYTEQVVKLMVPLLKFYFHDGVRVAAAESMPLLLECARVRGPEYLTQMWHFMCDALIKAIGTEPDSDVLSEIMHSFAKCIEVMGDGCLNNEHFEELGGILKAKLEEHFKNQELRQVKRQDEDYDEQVEESLQDEDDNDVYILTKVSDILHSIFSSYKEKVLPWFEQLLPLIVNLICPHRPWPDRQWGLCIFDDVIEHCSPASFKYAEYFLRPMLQYVCDNSPEVRQAAAYGLGVMAQYGGDNYRPFCTEALPLLVRVIQSADSKTKENVNATENCISAVGKIMKFKPDCVNVEEVLPHWLSWLPLHEDKEEAVQTFNYLCDLIESNHPIVLGPNNTNLPKIFSIIAEGEMHEAIKHEDPCAKRLANVVRQVQTSGGLWTECIAQLSPEQQAAIQELLNSA
- fold co-precipitated (IPO5/Ran) against Ran T24N: 2 fold
